Measurements from publication PMC12702776, “New insights into the classification of the RAC1 P29S hotspot mutation in melanoma as an oncogene” (Cancer Gene Therapy, 2025).

Target: RAC1^P29S, purified (human, UniProt P63000 1-192, P29S)
Assay: stopped-flow fluorimetry; mGppNHp-bound RAC1 with varying concentrations of His-IQGAP1 C794; kon, koff, Kd = koff/kon
Settings: both partners purified

B1: His-IQGAP1 C794 (C-terminal 794 amino acids of IQ motif-containing GTPase-activating protein 1) (domain or fragment)
chain: PPMVVVRKFVHLLDQSDQDFQEELDLMKMREEVITLIRSNQQLENDLNLMDIKIGLLVKNKITLQDVVSHSKKLTKKNKEQLSDMMMINKQKGGLKALSKEKREKLEAYQHLFYLLQTNPTYLAKLIFQMPQNKSTKFMDSVIFTLYNYASNQREEYLLLRLFKTALQEEIKSKVDQIQEIVTGNPTVIKMVVSFNRGARGQNALRQILAPVVKEIMDDKSLNIKTDPVDIYKSWVNQMESQTGEASKLPYDVTPEQALAHEEVKTRLDSSIRNMRAVTDKFLSAIVSSVDKIPYGMRFIAKVLKDSLHEKFPDAGEDELLKIIGNLLYYRYMNPAIVAPDAFDIIDLSAGGQLTTDQRRNLGSIAKMLQHAASNKMFLGDNAHLSIINEYLSQSYQKFRRFFQTACDVPELQDKFNVDEYSDLVTLTKPVIYISIGEIINTHTLLLDHQDAIAPEHNDPIHELLDDLGEVPTIESLIGESSGNLNDPNKEALAKTEVSLTLTNKFDVPGDENAEMDARTILLNTKRLIVDVIRFQPGETLTEILETPATSEQEAEHQRAMQRRAIRDAKTPDKMKKSKSVKEDSNLTLQEKKEKIQTGLKKLTELGTVDPKNKYQELINDIARDIRNQRRYRQRRKAELVKLQQTYAALNSKATFYGEQVDYYKSYIKTCLDNLASKGKVSKKPREMKGKKSKKISLKYTAARLHEKGVLLEIEDLQVNQFKNVIFEISPTEEVGDFEVKAKFMGVQMETFMLHYQDLLQLQYEGVAVMKLFDRAKVNVNLLIFLLNKKFYGK
notes: neither is stated here
fold higher binding affinity than that of PAK1 for RAC1^P29S: 30 fold
